One experiment has as its target Neto1-ΔCUB2-HA (UniProt Q8R4I7). Briefly: co-IP.
The next experiment has as its target Neto2-ΔCUB2-HA (UniProt Q8BNJ6). Put plainly: co-IP.

In the experiment with Neto1-ΔCUB2-HA, “FLAG-GluK2 (from UniProt P42260 32-908) (receptor)” came in with an amount of GluK2 co-immunoprecipitated, percent of full length Neto1 of 39%. The same substance returned an amount of GluK2 co-immunoprecipitated, percent of full length Neto2 in the experiment with Neto2-ΔCUB2-HA of 33%.

For the origin of these results see article PMC3148853.
